One block for each substance: values may come before it.
How the values were obtained:
[1] = target: recombinant human cathepsin L (human)
[2] = target: recombinant p31 Ii without cytoplasmic and transmembrane domain (and no inhibitory fragment) (human); test: SDS-PAGE with Western blot; recombinant Ii isoforms separated by SDS-PAGE, blotted and labelled with anti-Ii (LN2) mAb; minor bands above the monomers
[3] = target: recombinant p41 Ii without cytoplasmic and transmembrane domain (with inhibitory p41 fragment included) (human); test: as above

recombinant p41 Ii without cytoplasmic and transmembrane domain (with inhibitory p41 fragment included) (domain or fragment), sequence (P04233 73-296): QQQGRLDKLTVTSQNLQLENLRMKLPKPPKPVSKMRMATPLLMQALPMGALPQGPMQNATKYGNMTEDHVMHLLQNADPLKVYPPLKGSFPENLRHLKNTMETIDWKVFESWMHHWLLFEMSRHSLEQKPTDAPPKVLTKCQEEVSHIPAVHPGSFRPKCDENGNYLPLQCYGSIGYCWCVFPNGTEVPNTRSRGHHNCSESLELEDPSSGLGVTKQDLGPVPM

- active site titration: degradation of Z-Phe-Arg-AMC by cathepsin L (2.5 nM) with p41 fragment 0.5 nM to 3 nM; molar ratio at which the activity is abolished (molar ratio p41 fragment/cathepsin L) [1]: 1
Substance: p41 fragment of invariant chain p41 Ii (domain or fragment)

- stoichiometry N [2]: 2
Substance: recombinant p31 Ii without cytoplasmic and transmembrane domain (and no inhibitory fragment) (domain or fragment)

- stoichiometry N [3]: 2
Substance: recombinant p41 Ii without cytoplasmic and transmembrane domain (with inhibitory p41 fragment included) (domain or fragment)

Source: PMC4784741
